The values that follow come from patent US8147817B2, “IL-33 in the treatment and diagnosis of diseases and disorders” (The Brigham and Women's Hospital, Inc., priority 2006, dated 2012).

Assay [1] has as its system IκBα. Description: IκBα phosphorylation by Western analysis in cardiomyocytes. The class given is cell-based, rat. The method, then:
Western analyses were performed as described previously (45). Membranes were incubated with primary antibodies overnight (anti-p44/42MAPK diluted 1:500; phospho-p44/42MAPK (Thr202/Tyr204) 1:1000; phospho-JNK (Thr183/Tyr185) 1:500; p38MAPK 1:500; phospho-p38MAPK (Thr180/Tyr182) 1:500; phospho-Akt (Ser473) 1:1000 and phospho-IκBα 1:1000, all from Cell Signaling, anti-mouse ST2L, from R&D 1:1000 and anti-IL-33 as described above, 1:500) at 4° C., detected with horseradish peroxidase-conjugated antibodies and enhanced chemiluminescence.

The subject of assay [2] is cardiac fibroblasts. Description: Cardiac fibroblast proliferation. The class given is cell-based, rat. The method, then:
A 3-(4,5-dimethylthiazol-2-yl)-5-(3-carboxymethoxyphenyl)-2-(4-sulfophenyl)-2H-tetrazolium salt (MTS) assay was performed with CellTiter 96 AQueous One Solution Cell Proliferation Assay kit (Promega, Madison, Wis.). Actual cell number in each group was also counted manually after exclusion of dead cells by Trypan blue staining. Cell cycle of cardiac fibroblasts was analyzed as previously described (9). Briefly, cardiac fibroblasts were seeded at a density of 1.5×10^5 cells per 60 mm dishes and serum-starved for 24 hrs. After treatment, cells were trypsinized, fixed in 80% ethanol at −20° C. and labeled with 50 ug/ml propidium iodide (Sigma) with 50 ug/ml RNaseA (Sigma). Then propidium iodide fluorescence was analyzed by flow cytometer (CYTOMICS FC500, Beckman Coulter, Fullerton, Calif.). Total population was initially gated to remove cell debris, and 1×10^4 cells were assessed for each DNA histogram using CXP software (Beckman Coulter).

The test system of assay [3] is NF-κB. Description: NF-κB nuclear binding activity by EMSA in cardiomyocytes. The class given is cell-based, rat. The method, then:
Electromobility shift assays were performed as described previously (8). Cells were lysed for 10 minutes on ice in a solution containing 10 mM HEPES (pH 7.6), 15 mM KCl, 2 mM MgCl2, 0.1 mM ethylenediamine tetraacetic acid (EDTA), 1 mM dithiothreitol (DTT), 0.5 mM phenylmethylsulphonylfluoride (PMSF), 10 μg/mL leupeptin and 0.2% Nonident P-40. Dishes were gently scraped, and nuclei were collected by centrifugation at 800 g for 30 seconds and then suspended in a solution of 50 mM HEPES, 400 mM KCl, 0.1 mM EDTA, 10% glycerol, 1 mM DTT, 0.5 mM PMSF and 10 μg/mL leupeptin. The mixture was incubated on ice for 30 minutes, and the supernatant was collected after centrifugation for 15 minutes at 400 g. Binding reactions were performed with 5 or 10 μg of nuclear protein in 10 mM Tris, 1 mM DTT, 1 mM EDTA, 5% glycerol, 0.1% Triton X-100, 1 mg poly(dIdC), 5 μg bovine serum albumin (BSA) and approximately 10,000 cpm of −32P-labeled oligonucleotide. The binding reactions for AP-1 activity also contained 5 mM MgCl2. Control reaction mixtures contained a 100-fold excess of unlabeled oligonucleotide and were incubated with nuclear extracts of IL-1β-treated cells. DNA complexes were separated on a 4% nondenaturing polyacrylamide gel in Tris-HCl (6.7 mM), EDTA (1 mM) and ammonium acetate (3.3 mM). The oligonucleotides contained the NF-B binding site (sequence: 5′-AGTTGAGGGGACTTTCCCAGGC-3′ (SEQ ID NO: 15)) and were labeled by standard procedures.
EMSAs were performed as described previously (47). Cells were lysed for 10 minutes on ice in 10 mM HEPES (pH 7.6), 15 mM KCl, 2 mM MgCl2, 0.1 mM EDTA, 1 mM DTT, 0.5 mM PMSF, 10 μg/mL leupeptin, and 0.2% Nonident P-40. Dishes were gently scraped, and nuclei were collected by centrifugation at 800 g for 30 seconds and then suspended in a solution of 50 mM HEPES, 400 mM KCl, 0.1 mM EDTA, 10% glycerol, 1 mM DTT, 0.5 mM PMSF, and 10 μg/mL leupeptin. The mixture was incubated on ice for 30 minutes, and the supernatant was collected after centrifugation for 15 minutes at 400 g. Binding reactions were performed with 5 or 10 μg of nuclear protein in 10 mM Tris, 1 mM DTT, 1 mM EDTA, 5% glycerol, 0.1% Triton X-100, 1 mg poly(dIdC), […] BSA, and 10,000 cpm of [^32P]-labeled oligonucleotide. The specific NF-κB consensus oligonucleotides were 5′-[…]-3′ (SEQ ID NO: 15) and 5′-[…]-3′ (SEQ ID NO: 18) (Promega). Positive and negative control mixtures as well as specific competition mixtures were made as recommended by the manufacturer's instructions, using binding buffer with positive samples, labeled NF-κB oligonucleotides and 10-fold excess of cold NF-κB consensus oligonucleotides for specific competition. DNA complexes were separated on a 6% nondenaturing polyacrylamide gel in Tris-HCl (6.7 mM), EDTA (1 mM), and ammonium acetate (3.3 mM).
In general terms: In EMSA bound probe runs differently from free probe, usually more slowly.

The subject of assay [4] is rat neonatal cardiomyocytes. Description: [3H]-leucine incorporation assay (hypertrophy). The class given is cell-based. The method, then: Leucine incorporation in rat neonatal cardiomyocytes was detected as previously described (7). Cells were pre-incubated with 1.0 μCi/mL [^3H]leucine for 24 hours. The medium was aspirated, and the cells were washed twice with ice-cold PBS and once with 10% trichloroacetic acid (TCA; Sigma) and fixed for 45 minutes at 4° C. with 10% TCA. After washing twice with cold 95% ethanol, radioactivity incorporated into the TCA-precipitable material was determined by liquid scintillation counting after solubilization in 0.15N NaOH.
Leucine incorporation in rat neonatal cardiomyocytes was detected as previously described (46). Cells were treated with 1.0 μCi/ml [^3H]-leucine for 24 hours, washed, fixed with 10% trichloroacetate (Sigma) for 45 minutes at 4° C., and then radioactivity was determined by liquid scintillation counting. An anti-mouse ST2 antibody (R&D) was used as a functional neutralizing antibody (12). A normal rat IgG2a (Sigma) and mouse IL-1Rrp2 (R&D) were used as controls for anti-mouse ST2 antibody (R&D) and mouse soluble ST2 (R&D), respectively.

Assay [5] concerns NF-κB. Briefly: NF-κB luciferase reporter assay in neonatal rat cardiomyocytes. The class given is cell-based. Conditions: angiotensin-II with IL-33 co-treatment, n=3. The method, then: Neonatal rat cardiomyocytes were transfected using Lipofectamine Plus (Invitrogen) with a luciferase reporter plasmid for NF-κB and with β-galactosidase, as described previously (47). After 48 hours of transfection, cells were then stimulated for an additional 24 hours, lysed and treated with Dual-Light assay system (Applied Biosystems, Foster City, Calif.), and analyzed using a luminometer (PerkinElmer Waltham, Calif.).

The mark [6] stands for this setting: PDGF-BB (10 ng/ml) or TNF-α (10 ng/ml), IL-33 10 ng/ml.

“Also recorded” adds a separate entry of the source.

B1: IL-33: recombinant mature rat IL-33, starting with amino acid 109 of the full-length protein, N-terminal His tag (GenBank BC081993) (protein)
chain: SIQGTSLLTESCALSTYNDQSVSFVLENGCYVINVEDCGKNQEKDKVLLRYYESSFPAQSGDGVDGKKLMVNMSPIKDTDIWLNANDKDYSVELQKGDVSPPDQAFFVLHKKSSDFVSFECKNLPGTYIGVKDNQLALVEENDESCNNIMFKLSKM
modifications: left off: small tags and cut ends
B1: the “reduction of IκBα phosphorylation induced by PDGF-BB or TNF-α” value in assay [1] (setting [6]) is “not observed; also recorded: did not block IκBα phosphorylation”. The “IκBα phosphorylation by agent alone” value in assay [1] (cardiomyocytes) is reported as “induced IκBα phosphorylation in both cell types”. Further, the “IκB phosphorylation under hypertrophic stimulus” value in assay [1] (cardiomyocytes, co-treatment with IL-33) is “reduced IκB phosphorylation in cardiomyocytes”. In addition, the “cardiac fibroblast proliferation, IL-33 alone” value in assay [2] was “can induce cardiac fibroblast proliferation”. Besides, the “cardiac fibroblast proliferation induced by angiotensin II” value in assay [2] (co-treatment with IL-33) was “antagonizes cardiac fibroblast proliferation induced by angiotensin II; also recorded: antagonizes the proliferation induced by angiotensin II”. Further, the “reduction of NF-κB nuclear binding activity induced by PDGF-BB or TNF-α” value in assay [3] (setting [6]) is on record as “not observed; also recorded: did not block”. For the same molecule, in assay [3] (cardiomyocytes, angiotensin-II 1 μM, phenylephrine 50 μM, IL-33 10 ng/ml), the “NF-κB activation by agent alone” value is listed as “independently activated NF-κB in both cell types; also recorded: mildly activated NF-κB”. For the same molecule, the “angiotensin-II- or phenylephrine-induced NF-κB activation” value in assay [3] (cardiomyocytes, co-treatment with IL-33 10 ng/ml) is “markedly attenuated”. The “hypertrophy (leucine uptake) induced by angiotensin-II or phenylephrine” value in assay [4] (co-treatment with IL-33) was “can block cardiac hypertrophy; also recorded: potently blocked cardiomyocyte hypertrophy; also recorded: abrogates angiotensin-II- and phenylephrine-induced hypertrophy in cardiomyocytes in vitro; also recorded: blocks hypertrophy induced by angiotensin II; also recorded: dose dependent ability to decrease hypertrophy induced by angiotensin II and phenylephrine; also recorded: can antagonize hypertrophic effects of angiotensin II and phenylephrine; also recorded: blocked angiotensin-II or phenylephrine-induced leucine uptake in a dose-dependent manner”. Further, in assay [4] (no other stimulus), the “hypertrophy (leucine uptake), IL-33 alone” value is recorded as “modest, dose-dependent pro-hypertrophic trend that was not statistically significant; also recorded: modest hypertrophic effect; also recorded: non-significant trend toward stimulating hypertrophy”. For the same molecule, the “increase of NF-κB promoter activity” value in assay [5] was 8+/−12%.
